Experimental data published in article PMC7541481, “A unique clade of light-driven proton-pumping rhodopsins evolved in the cyanobacterial lineage” (Scientific Reports, 2020).

What was measured:
N4075R = target: T1, N4075R (Tolypothrix sp., UniProt Z9F5K4BE25); test: X-ray crystal structure ([…] Å); assay type: binding; details: covalent; Schiff base lysine; isomer not stated for this protein
T1 construct: E. coli cell-free synthesis for crystallization, in meso
T1 sequence (Z9F5K4BE25 8-259): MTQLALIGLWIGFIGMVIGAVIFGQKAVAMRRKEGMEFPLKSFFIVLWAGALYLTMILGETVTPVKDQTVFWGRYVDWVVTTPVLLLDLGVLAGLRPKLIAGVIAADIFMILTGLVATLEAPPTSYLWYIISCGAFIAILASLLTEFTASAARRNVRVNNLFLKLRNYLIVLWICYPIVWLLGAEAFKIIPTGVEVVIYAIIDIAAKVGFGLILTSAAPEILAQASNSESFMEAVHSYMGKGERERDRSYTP

N2098R = target: T2, N2098R (Calothrix sp., UniProt Z9R0O1FWN2); test: X-ray crystal structure ([…] Å); retinal isomer HPLC; assay type: binding; details: covalent; Schiff base with Lys204; in meso crystals
T2 construct: crystal: E. coli cell-free synthesis; retinal analysis: synthetic codon-optimized gene in pET21a, E. coli, C-terminal His-tag, DDM-solubilized
T2 sequence (Z9R0O1FWN2 8-254): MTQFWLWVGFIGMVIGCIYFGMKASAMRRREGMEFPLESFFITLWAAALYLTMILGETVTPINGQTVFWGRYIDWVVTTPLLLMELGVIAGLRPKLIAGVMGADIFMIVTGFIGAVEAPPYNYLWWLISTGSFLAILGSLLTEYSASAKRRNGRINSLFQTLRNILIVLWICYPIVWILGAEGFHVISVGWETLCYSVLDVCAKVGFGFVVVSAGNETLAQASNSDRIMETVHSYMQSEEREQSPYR

Asp121 = Asp121 (UniProt position 121, AYRYVDWLLTV); details: cited from earlier work
Asp97 = Asp97 (UniProt position 97, VFRYIDWLLTV); details: cited from earlier work
Asp85 = Asp85 (UniProt position 98, WARYADWLFTT); details: cited from earlier work
Asp74 (position 74, …) = test: UV-vis; details: room temperature (approx. 25°C); 50 mM NaCl; seven-mix buffer (Tris, citric acid, MES, HEPES, MOPS, CHES, CAPS; 10 mM each); dark/unphotolysed state under room light, all-trans retinal bound, detergent-solubilised, folded (reversibility checked)

CC1=C(/C=C/C(C)=C/C=C/C(C)=C/C=O)C(C)(C)CCC1 [all-trans retinal]
X-ray crystal structure (1.9 Å) (N4075R): Since the two structures were almost identical, only the structure of N2098R is described | X-ray crystal structure (2.65 Å); retinal isomer HPLC (N2098R): the isomeric state of retinal was predominantly all-trans

Gloeobacter rhodopsin (GR) (Gloeobacter violaceus PCC 7421)
pKa (Asp121): Approx. 5.9

Green-absorbing proteorhodopsin (GPR) (uncultured marine gamma proteobacterium EBAC31A08)
pKa (Asp97): Approx. 7.9

Bacteriorhodopsin (BR) (Halobacterium salinarum)
pKa (Asp85): Approx. 2.6

B1: Cyanorhodopsin N2098R (Calothrix sp. NIES-2098) (protein)
chain: T2 sequence (Z9R0O1FWN2 8-254)
pKa (Asp74 (position 74, …)): < 2.0
